The values below come from PMC10279719 (Nature Communications, 2023).

Holding throughout (conditions): both partners purified
Assay [1] has as its target T1, PEAK2^IDR1 (residues 802-1406), from insect cells, phosphorylated by Src (human, UniProt Q86YV5 802-1406, phosphorylated with Src kinase, sites not stated; phosphorylation of the tandem site 14-3-3 motif (RAASSP) found by proteomic analysis; biotin (EZ-Link NHS-PEG4-Biotin, 1:1 molar ratio)).
T1 construct: human PEAK2 (SgK223, PRAG1), UniProt Q86YV5, residues 802-1406; also called PEAK2-IDR1 (+ Src phosphorylation); source: Sf21 insect cells, purified; phosphorylated in vitro with recombinant Src kinase domain
T1 sequence (looked up): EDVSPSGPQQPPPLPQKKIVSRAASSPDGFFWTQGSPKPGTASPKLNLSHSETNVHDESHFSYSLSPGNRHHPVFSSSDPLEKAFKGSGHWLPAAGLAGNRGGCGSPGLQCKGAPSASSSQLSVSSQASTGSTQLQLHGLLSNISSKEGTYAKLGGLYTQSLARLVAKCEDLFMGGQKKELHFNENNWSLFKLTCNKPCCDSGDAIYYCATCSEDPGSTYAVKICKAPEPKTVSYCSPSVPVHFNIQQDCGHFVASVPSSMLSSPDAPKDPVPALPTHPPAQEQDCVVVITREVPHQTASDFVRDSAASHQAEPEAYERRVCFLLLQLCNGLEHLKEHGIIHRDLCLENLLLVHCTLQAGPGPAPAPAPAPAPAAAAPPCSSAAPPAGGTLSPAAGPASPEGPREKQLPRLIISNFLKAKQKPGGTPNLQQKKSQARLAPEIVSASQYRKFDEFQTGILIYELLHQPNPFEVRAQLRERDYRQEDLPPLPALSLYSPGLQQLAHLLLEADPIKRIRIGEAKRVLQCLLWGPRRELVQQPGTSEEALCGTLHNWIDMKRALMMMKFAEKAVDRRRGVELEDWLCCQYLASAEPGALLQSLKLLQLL
Description: SPR; biotinylated PEAK proteins (with or without Src phosphorylation) captured with a biotin CAPture kit, CrkII NSH3 as analyte; Biacore 8K+, 20 °C, HBS-TP (150 mM NaCl); 1 M NaCl regeneration; steady state. (SPR reads the build-up and loss of mass on a sensor chip optically.)

In assay [2] the target is T2, PEAK3 tandem peptide, non-phosphorylated (residues 54-74) (human, N-terminal acetyl; C-terminal amide).
T2 construct: source: synthetic peptide, bought: Mimotopes (95% purity)
T2 peptide: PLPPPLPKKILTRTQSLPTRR
As to the kind of experiment: ITC; binary; peptide in the cell (20 µM, or 16.8 µM after a buffer titration), protein in the syringe; 25 °C, 20 mM HEPES pH 7.4, 150 mM NaCl, 1 mM TCEP; single binding site model. (In general: ITC needs no label: the signal is the heat of the interaction.)

In assay [3] the target is T3, PEAK3 tandem-pS69 peptide (residues 54-74) (human, N-terminal acetyl; phosphoserine at S69; C-terminal amide).
T3 construct: source: synthetic peptide, bought: Mimotopes (95% purity)
T3 peptide: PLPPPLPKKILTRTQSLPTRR
The description is as above.

B1: CrkII N-terminal SH3 domain (CrkII^NSH3, residues 134-191) (domain or fragment, human, UniProt P46108-1 134-191, looked up)
chain: AEYVRALFDFNGNDEEDLPFKKGDILRIRDKPEEQWWNAEDSEGKRGMIPVPYVEKYR
notes: human CrkII NSH3 domain, UniProt P46108-1, residues 134-191; Amine coupled to a CM5 chip in a2; analyte in a4; in the syringe in ITC
Consider B1, for which, in assay [1], the Kd (as a rule, the constant that tells how readily two partners part at equilibrium) turned out to be 5.2 µM. Besides, the figures for the “stoichiometry N” value in assay [2] and in assay [3] were 0.904 and 0.823, respectively.
